From article PMC3991583 (Nature, 2014) come the findings set out here.

Read-outs that look alike come from different tables or passages of the source.

Common to all, as to assay: crystal structure
The target in series [1] is T1, AddA subunit of the nuclease-dead AddAB mutant (AddA D1172A) (UniProt P23478 1-1232, D1172A).
T1 sequence: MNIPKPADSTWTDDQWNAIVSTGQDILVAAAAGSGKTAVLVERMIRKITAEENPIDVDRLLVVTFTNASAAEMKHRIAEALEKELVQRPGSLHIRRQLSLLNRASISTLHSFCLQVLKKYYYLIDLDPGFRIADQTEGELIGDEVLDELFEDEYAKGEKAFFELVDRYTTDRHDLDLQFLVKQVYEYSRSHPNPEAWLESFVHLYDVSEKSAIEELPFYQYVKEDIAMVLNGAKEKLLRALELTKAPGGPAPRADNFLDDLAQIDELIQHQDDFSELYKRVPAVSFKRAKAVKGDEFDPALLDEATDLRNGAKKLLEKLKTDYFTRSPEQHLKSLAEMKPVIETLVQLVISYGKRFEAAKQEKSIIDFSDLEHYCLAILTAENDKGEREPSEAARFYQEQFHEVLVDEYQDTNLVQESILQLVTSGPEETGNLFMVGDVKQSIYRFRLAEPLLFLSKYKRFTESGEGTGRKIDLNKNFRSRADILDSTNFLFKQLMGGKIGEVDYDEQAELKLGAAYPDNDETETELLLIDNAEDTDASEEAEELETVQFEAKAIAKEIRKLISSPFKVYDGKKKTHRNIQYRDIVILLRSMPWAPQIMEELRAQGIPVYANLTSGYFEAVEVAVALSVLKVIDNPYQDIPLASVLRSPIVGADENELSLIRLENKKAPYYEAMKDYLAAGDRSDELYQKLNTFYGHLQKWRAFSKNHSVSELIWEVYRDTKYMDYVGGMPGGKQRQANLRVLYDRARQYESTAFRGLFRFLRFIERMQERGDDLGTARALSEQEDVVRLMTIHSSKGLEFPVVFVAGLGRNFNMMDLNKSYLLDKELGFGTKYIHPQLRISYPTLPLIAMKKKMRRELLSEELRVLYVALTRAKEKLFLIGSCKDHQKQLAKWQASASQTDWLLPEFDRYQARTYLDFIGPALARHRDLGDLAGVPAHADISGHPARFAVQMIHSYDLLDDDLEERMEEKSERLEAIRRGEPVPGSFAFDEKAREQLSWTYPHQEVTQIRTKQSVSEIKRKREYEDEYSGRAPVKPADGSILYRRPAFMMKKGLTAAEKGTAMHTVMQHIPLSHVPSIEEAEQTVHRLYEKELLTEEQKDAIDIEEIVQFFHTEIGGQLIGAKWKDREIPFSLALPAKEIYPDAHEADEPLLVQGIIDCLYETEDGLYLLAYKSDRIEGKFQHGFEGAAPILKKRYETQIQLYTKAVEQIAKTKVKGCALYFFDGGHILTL

The target of series [2] is T2, AddA (nuclease-dead);AddB (nuclease-dead) (Bacillus subtilis?;Bacillus subtilis?, UniProt P23478;P23477 1-1232;1-1166, D1172A|D961A).
Series [3] concerns the target T2, AddA (nuclease-dead);AddB …. This is another data set of the same source.

B1: AddB subunit of the nuclease-dead AddAB mutant (AddB D961A) (enzyme)
chain: MGAEFLVGRSGSGKTKLIINSIQDELRRAPFGKPIIFLVPDQMTFLMEYELAKTPDMGGMIRAQVFSFSRLAWRVLQHTGGMSRPFLTSTGVQMLLRKLIEEHKQEFKVYQKASDKSGFTAQVERMLTEFKRYCLEPEDIRRMAESGTASEYRGERVLSEKLHDLSILYQQMEKSLADQYLHSEDYLTLLAEHIPLAEDIKGAHIYVDGFYQFTPQEFRVLEQLMVHAEHITFSLTADKPSYEREPHELELFRMTGKTYYRLHQKAKELNLDITYKELSGTERHTKTPELAHLEAQYEARPAIPYAEKQEALTVMQAANRRAELEGIAREIHALVREKGYRYKDVAILARQPEDYKDMVKEVFADYEIPYFIDGKASMLNHPLIEFIRSSLDVLKGNWRYEAVFRCVKTELLFPLNEPKAKVREQVDQLENYCIAYGIKGDRWTKGDRFQYRRFVSLDDDFAQTDQEIEMENMLNDTRDWIVPPLFQLQKRMKKAKTVQEKAEALYRYLEETDVPLKLDQERQRAEDDGRIIEAQQHQQAWDAVIQLLEEFVEMMGDDEISLDLFQQMIEAGAESLTFSLIPPALDQVFVGNMDLSRMYGTSCTFVLGANDGVLPARPDENGVLSDDDREWLKTIGVELSSGGRERLLDEHFLIYMAFSSPSDRLYVSYPIADAEGKTLLPSMIVKRLEELFPHHKERLLTNEPEQVSDEEQLMYVVNKSVAQSFTASQLRLWTREYDISDVWWSTYNVLMSEQDRLQSKKLFSSLFFRNEVKQLERSVSRQLYGERIQGSVSRMETFNACPFSHFASHGLHLKERQFFKLEAPDIGQLFHSSLKLISDRLREQKLDWRDLTKEQCELFSYDAVERLAPKLQKEILLSSNRHYYVKEKLQKIVTRVSGILSEHAKASGFVPIGLELGFGGKGPLPPLTFQLKNGCTMELVGRIDRVDKAESSKGLLLRIVAYKSSDKGLDLAEVYYGLALQMLTYLDLSITHSADWLGMRATPAGVLYFHIHDPMIQSNLPLGLDEIEQEIFKKFKMKGLLLGDQEVVRLMDTTLQEGRSNIINAGLKKDGSLRSDSAAVGEKEFDLLTKHVRRTFQEAGEQITDGRVSIEPYKMKNKTPCTYCAFKSVCQFDESLEENEYRPLKAEKDKTILEWIKKEADGNEHS
B1: the binding result in series [1] is “binds”.

B2: oligo 023 (Chi, 6 T spacer) (structured_DNA)
DNA: TTTTTTTCTAATGCGAGCACTGCTATTCCCTAGCAGTGCTCGCATTAGATTTTGTTTTTTAGCGG
With B2, in series [2], the binding result was “binds”.

B3: oligo 027 (Chi, 7 T spacer, TTTT 3' extension) (structured_DNA)
DNA: TTTTTTTCTAATGCGAGCACTGCTATTCCCTAGCAGTGCTCGCATTAGATTTTGTTTTTTTAGCGGTTTT
As for B3, the binding result in series [3] is reported as “binds”.
